In the assay the target is T1, VEGF-A (VEGF165) (Homo sapiens, UniProt P15692).
T1 chain: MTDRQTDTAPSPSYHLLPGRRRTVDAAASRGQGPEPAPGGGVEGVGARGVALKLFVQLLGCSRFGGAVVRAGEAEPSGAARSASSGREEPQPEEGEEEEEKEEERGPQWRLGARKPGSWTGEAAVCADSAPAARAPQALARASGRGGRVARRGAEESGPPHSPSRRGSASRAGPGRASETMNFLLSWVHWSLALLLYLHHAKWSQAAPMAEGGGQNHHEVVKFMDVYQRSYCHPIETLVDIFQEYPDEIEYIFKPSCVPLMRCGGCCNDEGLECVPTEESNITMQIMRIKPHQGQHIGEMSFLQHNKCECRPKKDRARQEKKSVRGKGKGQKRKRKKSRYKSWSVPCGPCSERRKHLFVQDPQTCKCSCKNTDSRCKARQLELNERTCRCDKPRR
The assay can be described thus: equilibrium binding assay (ELISA of unbound blocker).

B1: HB-002.1 (VEGFR1 D2-Fc fusion) 129-228 (protein)
chain: SDTGRPFVEMYSEIPEIIHMTEGRELVIPCRVTSPNITVTLKKFPLDTLIPDGKRIIWDSRKGFIISNATYKEIGLLTCEATVNGHLYKTNYLTHRQTNT
modifications: fused to human IgG1 Fc
In turn, B1 displayed a Kd of 0.18 nM.

The term Kd denotes the constant that tells how readily two partners part at equilibrium.

Values taken from publication PMC4466810 (2015).
